# Patent US8293529B2, “Method for inducing differentiation of pluripotent stem cells into cardiomyocytes” (Daiichi Sankyo Company, Limited, priority 2006, dated 2012)
# Key:
# human ES cells = settings: rises from 15% without treatment; cited from earlier work
# mouse ES cells [1] = assay: Appearance rate of EBs exhibiting spontaneous beating; type: cell-based; settings: for occurrence of beating EBs: Wnt proteins added at 10 ng/mL to 50 ng/mL; for appearance rate of beating EBs: recombinant protein added at 1 ng/mL to 100 ng/mL
# Description: Culture for inducing differentiation of ES cells into cardiomyocytes or neurons was accomplished in a routine manner as follows. ES cells were suspended in LIF-free medium, and the resulting suspension was seeded at 500 cells/50 μL per well of a commercially available 96-well culture plate for spheroid formation (Sumilon Celltight Spheroid; Sumitomo Bakelite Co., Ltd., Japan).
# In the early stage of differentiation in ES cells, transient elevations in expression of various Wnt genes were observed prior to the appearance of cardiomyocytes. Then, ES cells at this stage were treated with recombinant Wnt proteins to study the myocardial differentiation-inducing effect of the proteins. Induction of ES cell differentiation was accomplished in the same manner as used in Example 1, except that some of the experimental groups were cultured in medium containing a commercially available recombinant WNT-1 (Peprotech), Wnt-3a (R&D systems) or Wnt-5a (R&D systems) protein. Treatment of ES cells in medium supplemented with a recombinant protein of canonical Wnt such as WNT-1 is hereinafter referred to as “Wnt treatment.”
# The above canonical Wnt protein treatment is known to inhibit the action of GSK3β within cells and thereby promote stabilization of β-catenin and its transcription activation ability. Then, further studies were performed to confirm that treatment with various drugs capable of promoting stabilization of β-catenin and its transcription activation ability produced a myocardial differentiation-inducing effect on ES cells, as in the case of Wnt treatment. As drugs capable of promoting stabilization of β-catenin and its transcription activation ability, the following five commercially available compounds were used: GSK3β inhibitors BIO (Calbiochem), GSK3β inhibitor VII (Calbiochem), cell-permeable GSK3β peptide inhibitor (L803-mts; Calbiochem) and SB216763 (Biomol), as well as a Wnt agonist (Calbiochem) that promotes the transcription activation ability of β-catenin without GSK3β inhibition. ES cells were induced to differentiate in the same manner as used in the above Examples, and cultured in medium containing the above compounds during the time period between 48 and 120 hours ([…]) after induction of differentiation, as in the case of recombinant Wnt proteins.
# mouse ES cells [2] = assay: Wnt gene expression during induction of differentiation in ES cells (real-time PCR); type: cell-based; settings: BMP antagonist treatment 15 ng/mL, 3 days before and immediately after induction; 72 hours after induction of differentiation; vs untreated group
# Text: Various Wnt genes were studied for their expression during differentiation in mouse ES cells. For use in experiments, mouse ES cells were passaged and maintained in an undifferentiated state according to the methods as described in “Manipulating the Mouse Embryo: A Laboratory Manual” (Hogan et al., eds., Cold Spring Harbor Laboratory Press, 1994) and “Embryonic Stem Cells: Methods and Protocols” (Turksen ed., Humana Press, 2002) by using Knockout-DMEM (Invitrogen) medium containing 20% fetal bovine serum, 2 mmol/L L-glutamine and 0.1 mmol/L 2-mercaptoethanol (hereinafter referred to as ESM), supplemented with 1000 U/mL LIF (ESGRO; Chemicon). […]
# The EBs thus prepared were collected periodically, and total RNA was prepared with an RNeasy mini kit (Qiagen), followed by DNase treatment. cDNA was synthesized from the DNase-treated total RNA (1 μg) using a SuperScript™ First-Strand Synthesis System for RT-PCR (Invitrogen). Analysis of gene expression was performed with an ABI PRISM 7700 (PE Applied Biosystems) by using a real-time polymerase chain reaction (PCR) quantification system with Lux primers to examine the expression level of each gene. The real-time PCR quantification was accomplished by using the above cDNA as a template and using Platinum Quantitative PCR SuperMix-UDG (Invitrogen) according to the instructions attached thereto. […]
# mouse ES cells [3] = assay: Immunohistochemical staining of cardiomyocyte-specific marker proteins in EBs; type: cell-based; settings: EBs at 10 days after induction of differentiation
# Description: Subsequently, immunohistochemical staining was performed to confirm that beating cells developed in EBs from the Wnt-treated groups produced cardiomyocyte-specific marker proteins. EBs in the Wnt-treated group (Wnt^48˜120h group) at 10 days after induction of differentiation were freshly embedded in a compound for preparing frozen sections (OCT Compound, Sakura Finetek USA Inc.) and then frozen with liquid nitrogen. The frozen samples were sectioned at 6 μm of thickness and attached on glass slides. These frozen sections were reacted with anti-sarcomeric myosin antibody (MF20; American Type Culture Collection), anti-GATA-4 antibody (C-20; Santa Cruz) or anti-Nkx-2.5 antibody (N-19; Santa Cruz) as a primary antibody and then reacted with a horseradish peroxidase-labeled secondary antibody (Bio-RAD), and finally subjected to a color reaction with ACE (3-amino-9-ethylcarbazole) substrate solution (Nichirei Corporation, Japan) and observed under an optical microscope.
# cmES cells = assay: Immunohistochemical staining of marker proteins in EBs from cmES cells; type: cell-based, common marmoset; settings: EBs at 16 days after induction of differentiation
# Description: Subsequently, immunohistochemical staining was performed in the same manner as used in Example 2 to confirm that beating cells developed in EBs from the Wnt-treated groups were cardiomyocytes producing specific marker proteins. From EBs in the Wnt-treated groups (Wnt-3a, WNT-1) at 16 days after induction of differentiation, frozen sections were prepared and reacted with anti-sarcomeric myosin antibody, anti-GATA-4 antibody or anti-Nkx-2.5 antibody as a primary antibody. After color reaction, these sections were observed under an optical microscope.
Molecule,"expression levels of the Wnt genes (Wnt-3, Wnt-3a, Wnt-8a) (mouse ES cells [2])",occurrence of beating EBs (mouse ES cells [1]),appearance rate of beating EBs (mouse ES cells [1]),other results
Nc1ncn([C@@H]2O[C@H](CO)[C@@H](O)[C@H]2O)c(=O)n1 [5-azacytidine],,,,percentage of troponin I-positive cells (candidate cardiomyocytes) in EBs (human ES cells): 44%
"Chordin: commercially available recombinant Chordin protein (R&D systems), BMP antagonist (protein, UniProt Q9H2X0 27-955, looked up) Chordin: AGPEPPVLPIRSEKEPLPVRGAAGCTFGGKVYALDETWHPDLGEPFGVMRCVLCACEAPQWGRRTRGPGRVSCKNIKPECPTPACGQPRQLPGHCCQTCPQERSSSERQPSGLSFEYPRDPEHRSYSDRGEPGAEERARGDGHTDFVALLTGPRSQAVARARVSLLRSSLRFSISYRRLDRPTRIRFSDSNGSVLFEHPAAPTQDGLVCGVWRAVPRLSLRLLRAEQLHVALVTLTHPSGEVWGPLIRHRALAAETFSAILTLEGPPQQGVGGITLLTLSDTEDSLHFLLLFRGLLEPRSGGLTQVPLRLQILHQGQLLRELQANVSAQEPGFAEVLPNLTVQEMDWLVLGELQMALEWAGRPGLRISGHIAARKSCDVLQSVLCGADALIPVQTGAAGSASLTLLGNGSLIYQVQVVGTSSEVVAMTLETKPQRRDQRTVLCHMAGLQPGGHTAVGICPGLGARGAHMLLQNELFLNVGTKDFPDGELRGHVAALPYCGHSARHDTLPVPLAGALVLPPVKSQAAGHAWLSLDTHCHLHYEVLLAGLGGSEQGTVTAHLLGPPGTPGPRRLLKGFYGSEAQGVVKDLEPELLRHLAKGMASLMITTKGSPRGELRGQVHIANQCEVGGLRLEAAGAEGVRALGAPDTASAAPPVVPGLPALAPAKPGGPGRPRDPNTCFFEGQQRPHGARWAPNYDPLCSLCTCQRRTVICDPVVCPPPSCPHPVQAPDQCCPVCPEKQDVRDLPGLPRSRDPGEGCYFDGDRSWRAAGTRWHPVVPPFGLIKCAVCTCKGGTGEVHCEKVQCPRLACAQPVRVNPTDCCKQCPVGSGAHPQLGDPMQADGPRGCRFAGQWFPESQSWHPSVPPFGEMSCITCRCGAGVPHCERDDCSLPLSCGSGKESRCCSRCTAHRRPAPETRTDPELEKEAEGS",significantly higher than those of the untreated group,,,"regions of EBs exhibiting beating (mouse ES cells [1]; Wnt 48-96 h and 48-120 h groups, Chordin-treated EBs): beating throughout virtually all regions of their surface layer"
"DAN: commercially available recombinant DAN protein (R&D systems), BMP antagonist (protein, UniProt P41271 17-181, looked up) Neuroblastoma suppressor of …: AAPPPINKLALFPDKSAWCEAKNITQIVGHSGCEAKSIQNRACLGQCFSYSVPNTFPQSTESLVHCDSCMPAQSMWEIVTLECPGHEEVPRVDKLVEKILHCSCQACGKEPSHEGLSVYVQGEDGPGSQPGTHPHPHPHPHPGGQTPEPEDPPGAPHTEEEGAED",significantly higher than those of the untreated group,,,"cells positive for sarcomeric myosin, Nkx-2.5 and GATA-4 (mouse ES cells [3]): the great majority of EB-constituting cells were found to be positive"
"WNT-1: commercially available recombinant human-derived WNT-1 protein (Peprotech), canonical Wnt (protein, listed as Mus musculus) MGLWALLPSWVSTTLLLALTALPAALAANSSGRWWGIVNIASSTNLLTDSKSLQLVLEPSLQLLSRKQRRLIRQNPGILHSVSGGLQSAVRECKWQFRNRRWNCPTAPGPHLFGKIVNRGCRETAFIFAITSAGVTHSVARSCSEGSIESCTCDYRRRGPGGPDWHWGGCSDNIDFGRLFGREFVDSGEKGRDLRFLMNLHNNEAGRTTVFSEMRQECKCHGMSGSCTVRTCWMRLPTLRAVGDVLRDRFDGASRVLYGNRGSNRASRAELLRLEPEDPAHKPPSPHDLVYFEKSPNFCTYSGRLGTAGTAGRACNSSSPALDGCELLCCGRGHRTRTQRVTERCNCTFHWCCHVSCRNCTHTRVLHECL",,very good occurrence of beating EBs,significantly higher than in the untreated group,"cells positive for sarcomeric myosin, GATA-4 and Nkx-2.5 (cmES cells): the great majority of EB-constituting cells were found to be positive"
"Wnt-5a: commercially available recombinant mouse-derived Wnt-5a protein (R&D systems) (protein, listed as Mus musculus) MKKPIGILSPGVALGTAGGAMSSKFFLMALATFFSFAQVVIEANSWWSLGMNNPVQMSEVYIIGAQPLCSQLAGLSQGQKKLCHLYQDHMQYIGEGAKTGIKECQYQFRHRRWNCSTVDNTSVFGRVMQIGSRETAFTYAVSAAGVVNAMSRACREGELSTCGCSRARPKDLPRDWLWGGCGDNIDYGHPFAKEFVDARERERIHAKGSYESARILMNLHNNEAGRRTVYNLADVACKCHGVSGSCSLKTCWLQLADFRKVGDALKEKYDSAAAMRLNSRGKLVQVNSRFNSPTTQDLVYIDPSPDYCVRNESTGSLGTQGRLCNKTSEGMDGCELMCCGRGYDQFKTVQTERCHCKFHWCCYVKCKKCTEIVDQFVCK",,very good occurrence of beating EBs,significantly higher than in the untreated group,
